Results on 14 molecules are retold here after patent US20190241669A1 (published 2019).

In one experiment the target is T1, cynomolgus monkey BCMA (cynomolgus monkey, UniProt A0A2K5UD97 1-53).
T1 construct: Soluble analyte in SPR; construct not described; also called cyBCMA; Cyno BCMA
Description: SPR, IgG on chip, cyBCMA analyte, 37C. (In general: In SPR one partner is held on a chip, and binding of the other changes the refractive index at the surface.)

The target in experiment [1] is Human BCMA (human) (UniProt Q02223). Description: SPR, IgG immobilised, huBCMA analyte, 37 C.
Experiment [2] shares this target. In words: SPR, IgG immobilised, huBCMA analyte, 25 C.

T1 sequence (A0A2K5UD97 entry or part of it): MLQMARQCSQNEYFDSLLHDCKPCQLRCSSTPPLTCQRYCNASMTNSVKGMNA

B1: L3.PY/L3.KF/H3.TAQ (antibody, V domains shown)
VH: EVQLLESGGGLVQPGGSLRLSCAASGFTFGSYAMTWVRQAPGKGLEWVSAISGSGGNTFYADSVKGRFTISRDNSKNTLYLQMNSLRAEDTAVYYCTRVSPIAAQMDYWGQGTLVTVSS
VL: EIVLTQSPGTLSLSPGERATLSCRASQSVSSSYLAWYQQKPGQAPRLLIYGASSRATGIPDRFSGSGSGTDFTLTISRLEPEDFAVYYCKFYPYPPSFTFGQGTKVEIK
notes: IgG
Turning to B1, in the experiment with cynomolgus monkey BCMA, binding was characterised by a dissociation constant (Kd) of 0.95 nM, the “T½” value amounted to 6.05 min, the dissociation rate constant (koff) is 0.00191 s⁻¹ and the kon was found to be 2.01e+06 M⁻¹ s⁻¹. Moreover, in the experiment with Human BCMA (human) [1], the Kd was determined as 0.58 nM, the T½ turned out to be 7.12 min, the koff came to 0.00162 s⁻¹ and the kon is 2.82e+06 M⁻¹ s⁻¹.

B2: L1.LGF/L3.KW/H3.AP (antibody, V domains shown)
VH: EVQLLESGGGLVQPGGSLRLSCAASGFTFGSYAMTWVRQAPGKGLEWVSAISGSGGNTFYADSVKGRFTISRDNSKNTLYLQMNSLRAEDTAVYYCARVSPIAAPMDYWGQGTLVTVSS
VL: EIVLTQSPGTLSLSPGERATLSCRASQSLGSFYLAWYQQKPGQAPRLLIYGASSRATGIPDRFSGSGSGTDFTLTISRLEPEDFAVYYCKHYGWPPSFTFGQGTKVEIK
In the experiment with Human BCMA (human) [2], B2 returned a Kd of 2.44 nM, a T½ of 5.1 min, a koff of 0.00227 s⁻¹ and a kon of 928000 M⁻¹ s⁻¹.

B3: L1.GDF/L3.KW/H3.AP (antibody, V domains shown)
VH: EVQLLESGGGLVQPGGSLRLSCAASGFTFGSYAMTWVRQAPGKGLEWVSAISGSGGNTFYADSVKGRFTISRDNSKNTLYLQMNSLRAEDTAVYYCARVSPIAAPMDYWGQGTLVTVSS
VL: EIVLTQSPGTLSLSPGERATLSCRASQSVGDFYLAWYQQKPGQAPRLLIYGASSRATGIPDRFSGSGSGTDFTLTISRLEPEDFAVYYCKHYGWPPSFTFGQGTKVEIK
In the experiment with Human BCMA (human) [2], B3 had a Kd of 3.93 nM, a T½ of 2.51 min, a koff of 0.00461 s⁻¹ and a kon of 1.17e+06 M⁻¹ s⁻¹.

B4: L1.LGF/L3.NY/H3.AP (antibody, V domains shown)
VH: EVQLLESGGGLVQPGGSLRLSCAASGFTFGSYAMTWVRQAPGKGLEWVSAISGSGGNTFYADSVKGRFTISRDNSKNTLYLQMNSLRAEDTAVYYCARVSPIAAPMDYWGQGTLVTVSS
VL: EIVLTQSPGTLSLSPGERATLSCRASQSLGSFYLAWYQQKPGQAPRLLIYGASSRATGIPDRFSGSGSGTDFTLTISRLEPEDFAVYYCQHYNYPPSFTFGQGTKVEIK
For B4, in the experiment with Human BCMA (human) [2], the Kd worked out at 0.57 nM, the T½ is 21.7 min, the koff turned out to be 0.000533 s⁻¹ and the kon is 936000 M⁻¹ s⁻¹.

B5: L1.LGF/L3.PY/H3.AP (antibody, V domains shown)
VH: EVQLLESGGGLVQPGGSLRLSCAASGFTFGSYAMTWVRQAPGKGLEWVSAISGSGGNTFYADSVKGRFTISRDNSKNTLYLQMNSLRAEDTAVYYCARVSPIAAPMDYWGQGTLVTVSS
VL: EIVLTQSPGTLSLSPGERATLSCRASQSLGSFYLAWYQQKPGQAPRLLIYGASSRATGIPDRFSGSGSGTDFTLTISRLEPEDFAVYYCQHYPYPPSFTFGQGTKVEIK
In the experiment with Human BCMA (human) [2], B5 had a Kd of 2.12 nM, a T½ of 11.9 min, a koff of 0.000969 s⁻¹ and a kon of 457000 M⁻¹ s⁻¹.

B6: L3.PY/L3.KY/H2.QR (antibody, V domains shown)
VH: EVQLLESGGGLVQPGGSLRLSCAASGFTFGSYAMTWVRQAPGKGLEWVSAISGSGGNTFYADQRKGRFTISRDNSKNTLYLQMNSLRAEDTAVYYCARVSPIASGMDYWGQGTLVTVSS
VL: EIVLTQSPGTLSLSPGERATLSCRASQSVSSSYLAWYQQKPGQAPRLLIYGASSRATGIPDRFSGSGSGTDFTLTISRLEPEDFAVYYCKYYPYPPSFTFGQGTKVEIK
notes: IgG
Regarding B6, in the experiment with cynomolgus monkey BCMA, binding was characterised by a dissociation constant (Kd) of 3.78 nM, the “T½” value amounted to 1.49 min, the koff is 0.00774 s⁻¹ and the kon is 2.05e+06 M⁻¹ s⁻¹. In the experiment with Human BCMA (human) [1], this molecule registered a Kd of 0.34 nM, a T½ of 11.7 min, a koff of 0.00099 s⁻¹ and a kon of 2.95e+06 M⁻¹ s⁻¹.

B7: L3.PY/L3.KY/H3.TAQ (antibody, V domains shown)
VH: EVQLLESGGGLVQPGGSLRLSCAASGFTFGSYAMTWVRQAPGKGLEWVSAISGSGGNTFYADSVKGRFTISRDNSKNTLYLQMNSLRAEDTAVYYCTRVSPIAAQMDYWGQGTLVTVSS
VL: EIVLTQSPGTLSLSPGERATLSCRASQSVSSSYLAWYQQKPGQAPRLLIYGASSRATGIPDRFSGSGSGTDFTLTISRLEPEDFAVYYCKYYPYPPSFTFGQGTKVEIK
notes: IgG
With B7, in the experiment with cynomolgus monkey BCMA, the affinity, expressed as Kd, was 1.06 nM; the “T½” value was determined as 6.03 min; the koff amounted to 0.00192 s⁻¹; the kon stood at 1.81e+06 M⁻¹ s⁻¹. In the experiment with Human BCMA (human) [1], this molecule had a Kd of 0.23 nM, a T½ of 17.8 min, a koff of 0.000649 s⁻¹ and a kon of 2.79e+06 M⁻¹ s⁻¹.

B8: L3.PY/L3.KY/H2.DY (antibody, V domains shown)
VH: EVQLLESGGGLVQPGGSLRLSCAASGFTFGSYAMTWVRQAPGKGLEWVSAIDYSGGNTFYADSVKGRFTISRDNSKNTLYLQMNSLRAEDTAVYYCARVSPIASGMDYWGQGTLVTVSS
VL: EIVLTQSPGTLSLSPGERATLSCRASQSVSSSYLAWYQQKPGQAPRLLIYGASSRATGIPDRFSGSGSGTDFTLTISRLEPEDFAVYYCKYYPYPPSFTFGQGTKVEIK
notes: IgG
B8: in the experiment with cynomolgus monkey BCMA, the Kd was 1.24 nM, the “T½” value turned out to be 4.75 min, the off-rate constant (koff) was determined as 0.00243 s⁻¹ and the kon stood at 1.96e+06 M⁻¹ s⁻¹. In the experiment with Human BCMA (human) [1], this molecule yielded a Kd of 0.2 nM, a T½ of 18 min, a koff of 0.000642 s⁻¹ and a kon of 3.19e+06 M⁻¹ s⁻¹.

B9: L3.PY/L3.KY/H2.YQ (antibody, V domains shown)
VH: EVQLLESGGGLVQPGGSLRLSCAASGFTFGSYAMTWVRQAPGKGLEWVSAISYQGGNTFYADSVKGRFTISRDNSKNTLYLQMNSLRAEDTAVYYCARVSPIASGMDYWGQGTLVTVSS
VL: EIVLTQSPGTLSLSPGERATLSCRASQSVSSSYLAWYQQKPGQAPRLLIYGASSRATGIPDRFSGSGSGTDFTLTISRLEPEDFAVYYCKYYPYPPSFTFGQGTKVEIK
notes: IgG
Regarding B9, in the experiment with cynomolgus monkey BCMA, the Kd was 2.04 nM, the “T½” value is 4.47 min, the koff was found to be 0.00258 s⁻¹ and the kon is 1.27e+06 M⁻¹ s⁻¹. In the experiment with Human BCMA (human) [1], this molecule gave a Kd of 0.77 nM, a T½ of 7.02 min, a koff of 0.00165 s⁻¹ and a kon of 2.14e+06 M⁻¹ s⁻¹.

B10: L3.PY/L3.KY/H2.LT (antibody, V domains shown)
VH: EVQLLESGGGLVQPGGSLRLSCAASGFTFGSYAMTWVRQAPGKGLEWVSAISLTGGNTFYADSVKGRFTISRDNSKNTLYLQMNSLRAEDTAVYYCARVSPIASGMDYWGQGTLVTVSS
VL: EIVLTQSPGTLSLSPGERATLSCRASQSVSSSYLAWYQQKPGQAPRLLIYGASSRATGIPDRFSGSGSGTDFTLTISRLEPEDFAVYYCKYYPYPPSFTFGQGTKVEIK
notes: IgG
Consider B10, for which, in the experiment with cynomolgus monkey BCMA, the Kd turned out to be 1.27 nM, the “T½” value was found to be 4.98 min, the koff is 0.00232 s⁻¹ and the kon amounted to 1.82e+06 M⁻¹ s⁻¹. In the experiment with Human BCMA (human) [1], this molecule gave a Kd of 0.31 nM, a T½ of 12.8 min, a koff of 0.000906 s⁻¹ and a kon of 2.92e+06 M⁻¹ s⁻¹.

B11: L3.PY/L3.KY/H2.QL (antibody, V domains shown)
VH: EVQLLESGGGLVQPGGSLRLSCAASGFTFGSYAMTWVRQAPGKGLEWVSAISGSGGNTFYADQLKGRFTISRDNSKNTLYLQMNSLRAEDTAVYYCARVSPIASGMDYWGQGTLVTVSS
VL: EIVLTQSPGTLSLSPGERATLSCRASQSVSSSYLAWYQQKPGQAPRLLIYGASSRATGIPDRFSGSGSGTDFTLTISRLEPEDFAVYYCKYYPYPPSFTFGQGTKVEIK
notes: IgG
As to B11, in the experiment with cynomolgus monkey BCMA, the Kd came out at 1.49 nM, the “T½” value came out at 2.83 min, the koff is 0.00409 s⁻¹ and the kon is 2.75e+06 M⁻¹ s⁻¹. In the experiment with Human BCMA (human) [1], the Kd amounted to 0.57 nM, the T½ was 5.56 min, the koff was determined as 0.00208 s⁻¹ and the kon came to 3.65e+06 M⁻¹ s⁻¹.

B12: L3.PY/L3.KF/H3.YA (antibody, V domains shown)
VH: EVQLLESGGGLVQPGGSLRLSCAASGFTFGSYAMTWVRQAPGKGLEWVSAISGSGGNTFYADSVKGRFTISRDNSKNTLYLQMNSLRAEDTAVYYCARVSPIYAGMDYWGQGTLVTVSS
VL: EIVLTQSPGTLSLSPGERATLSCRASQSVSSSYLAWYQQKPGQAPRLLIYGASSRATGIPDRFSGSGSGTDFTLTISRLEPEDFAVYYCKFYPYPPSFTFGQGTKVEIK
notes: IgG
B12: in the experiment with cynomolgus monkey BCMA, the Kd stood at 3.78 nM, the “T½” value came out at 1.45 min, the koff was 0.00796 s⁻¹ and the kon came out at 2.1e+06 M⁻¹ s⁻¹. Also, in the experiment with Human BCMA (human) [1], the Kd was found to be 0.47 nM, the T½ was determined as 7.85 min, the koff came to 0.00147 s⁻¹ and the kon was determined as 3.12e+06 M⁻¹ s⁻¹.

B13: L3.PY/L3.KY/H3.YA (antibody, V domains shown)
VH: EVQLLESGGGLVQPGGSLRLSCAASGFTFGSYAMTWVRQAPGKGLEWVSAISGSGGNTFYADSVKGRFTISRDNSKNTLYLQMNSLRAEDTAVYYCARVSPIYAGMDYWGQGTLVTVSS
VL: EIVLTQSPGTLSLSPGERATLSCRASQSVSSSYLAWYQQKPGQAPRLLIYGASSRATGIPDRFSGSGSGTDFTLTISRLEPEDFAVYYCKYYPYPPSFTFGQGTKVEIK
notes: IgG
For B13, in the experiment with cynomolgus monkey BCMA, binding was characterised by a dissociation constant (Kd) of 2.33 nM, the “T½” value turned out to be 2.7 min, the koff was 0.00428 s⁻¹ and the kon amounted to 1.84e+06 M⁻¹ s⁻¹. In the experiment with Human BCMA (human) [1], the Kd stood at 0.28 nM, the T½ came to 12.7 min, the koff worked out at 0.000912 s⁻¹ and the kon was determined as 3.3e+06 M⁻¹ s⁻¹.

B14: L3.PY/L3.KY/H2.HA (antibody, V domains shown)
VH: EVQLLESGGGLVQPGGSLRLSCAASGFTFGSYAMTWVRQAPGKGLEWVSAISHAGGNTFYADSVKGRFTISRDNSKNTLYLQMNSLRAEDTAVYYCARVSPIASGMDYWGQGTLVTVSS
VL: EIVLTQSPGTLSLSPGERATLSCRASQSVSSSYLAWYQQKPGQAPRLLIYGASSRATGIPDRFSGSGSGTDFTLTISRLEPEDFAVYYCKYYPYPPSFTFGQGTKVEIK
notes: IgG
As to B14, in the experiment with cynomolgus monkey BCMA, binding was put at a Kd of 1.4 nM, the “T½” value came to 3.63 min, the koff was found to be 0.00318 s⁻¹ and the kon was 2.28e+06 M⁻¹ s⁻¹. In the experiment with Human BCMA (human) [1], this molecule displayed a Kd of 0.49 nM, a T½ of 7.1 min, a koff of 0.00163 s⁻¹ and a kon of 3.29e+06 M⁻¹ s⁻¹.

In general, Kd refers to a measure of binding affinity in units of concentration. As a reminder, the koff is the first-order rate constant of dissociation. Broadly, the kon is a measure of how fast the partners come together.
